Measurements taken from publication PMC3737472.

How the values were obtained:
[1] = molecular target: HSV-1 glycoprotein B full-length ectodomain including the membrane proximal region, gB773t (residues 31-773) (herpes simplex virus type 1 (HSV-1)) (UniProt P06437); experiment: negative stain EM; SEC fractions 19-22 (run without detergent) on carbon-coated grids at 2-20 ug/ml; 0.75% uranyl formate pH 5.5 or methylamine vanadate pH 8.0
[2] = molecular target: HSV-1 glycoprotein B full-length ectodomain including the membrane proximal region, gB773t (residues 31-773) (herpes simplex virus type 1 (HSV-1)) (UniProt P06437); experiment: cryo-EM projection images; SEC fraction 22 (run without detergent) embedded in vitreous ice on holey carbon grids
[3] = molecular target: HSV-1 glycoprotein B ectodomain lacking the membrane proximal region, gB730t (residues 31-730) (herpes simplex virus type 1 (HSV-1)) (UniProt P06437); experiment: negative stain EM; SEC fractions 19-22 (run without detergent) on carbon-coated grids at 2-20 ug/ml; 0.75% uranyl formate pH 5.5 or methylamine vanadate pH 8.0
[4] = molecular target: HSV-1 glycoprotein B ectodomain lacking the membrane proximal region, gB730t (residues 31-730) (herpes simplex virus type 1 (HSV-1)) (UniProt P06437); experiment: as above; remark: listed apart in the source
[5] = molecular target: HSV-1 glycoprotein B ectodomain lacking the membrane proximal region, gB730t (residues 31-730) (herpes simplex virus type 1 (HSV-1)) (UniProt P06437); experiment: cryo-EM projection images; SEC fraction 22 (run without detergent) embedded in vitreous ice on holey carbon grids
[6] = molecular target: HSV-1 glycoprotein B ectodomain lacking the membrane proximal region, gB730t (residues 31-730) (herpes simplex virus type 1 (HSV-1)) (UniProt P06437); experiment: cryo-EM structure; cryo-ET subtomogram averaging of gB730t trimers bound to liposomes (phosphatidylcholine:cholesterol 1.7:1), pH 5.5, protein ca. 1 mg/ml, 1 hr at 37 C; 786 particles, 2.7 nm
[7] = molecular target: HSV-1 glycoprotein B ectodomain lacking the membrane proximal region, gB730t (residues 31-730) (herpes simplex virus type 1 (HSV-1)) (UniProt P06437); experiment: SEC; Superdex200 column run in 2x PBS; gB773t also run in 2x PBS/0.5% octyl-glucoside after overnight incubation with the detergent

Row | Substance | stoichiometry N [1] | stoichiometry N [2] | stoichiometry N [3] | stoichiometry N [4] | stoichiometry N [5] | stoichiometry N [6] | stoichiometry N [7]
1 | HSV-1 glycoprotein B full-length ectodomain including the membrane proximal region, gB773t (residues 31-773) (from UniProt P06437 31-773) (domain or fragment) | 3 | 3 | – | – | – | – | –
2 | HSV-1 glycoprotein B ectodomain lacking the membrane proximal region, gB730t (residues 31-730) (from UniProt P06437 31-730) (domain or fragment) | – | – | 6 | 3 | 3 | 3 | 3
